The text below walks through data of publication PMC4468156, “Essential Role for an M17 Leucine Aminopeptidase in Encystation of Acanthamoeba castellanii” (PLoS ONE, 2015).

For orientation: Km means the concentration of substrate that gives half-maximal velocity.

Data set [1] addresses T1, AcLAPr (recombinant AcLAP, M17 leucine aminopeptidase) (Acanthamoeba castellanii, UniProt A0A060A630).
T1 construct: gene LAP; pCold TF vector, E. coli BL21 (pKJE7), Ni-NTA; N-terminal His6-trigger factor tag removed with thrombin
T1 sequence (A0A060A630 1-579): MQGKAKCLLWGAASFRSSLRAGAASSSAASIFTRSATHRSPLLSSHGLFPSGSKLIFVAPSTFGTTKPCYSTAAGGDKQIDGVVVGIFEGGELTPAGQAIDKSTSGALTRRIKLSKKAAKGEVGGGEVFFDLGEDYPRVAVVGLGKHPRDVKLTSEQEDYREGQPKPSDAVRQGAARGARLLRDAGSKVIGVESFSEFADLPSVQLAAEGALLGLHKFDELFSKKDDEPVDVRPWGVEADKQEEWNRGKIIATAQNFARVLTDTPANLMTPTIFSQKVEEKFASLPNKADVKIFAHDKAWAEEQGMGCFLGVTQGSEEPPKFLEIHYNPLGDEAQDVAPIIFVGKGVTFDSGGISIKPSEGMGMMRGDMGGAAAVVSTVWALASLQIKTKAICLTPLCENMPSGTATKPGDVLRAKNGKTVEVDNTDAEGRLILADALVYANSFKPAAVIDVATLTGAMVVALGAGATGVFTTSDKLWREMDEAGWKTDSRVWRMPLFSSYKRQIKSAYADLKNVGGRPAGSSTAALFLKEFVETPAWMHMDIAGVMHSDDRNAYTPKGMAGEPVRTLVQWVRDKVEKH
Briefly: inhibition of Leu-AMC hydrolysis, fluorometric. In kind it is biochemical. From the text:
inhibition of Leu-AMC hydrolysis, fluorometric on AcLAPr (recombinant AcLAP, M17 leucine aminopeptidase)

Substrate in data set [2]: CSCC[C@H](N)C(=O)Nc1ccc2c(C)cc(=O)oc2c1
The data set is described as follows: purified protein. In kind it is biochemical, Acanthamoeba castellanii. Conditions: 50 mM Tris-HCl, 1 mM MnCl2, pH 8.0, 37°C, 25 nM enzyme.

Substrate in data set [3]: Cc1cc(=O)oc2cc(NC(=O)[C@@H](N)CC(C)C)ccc12
The data set is described as follows: purified protein. Format: biochemical, Acanthamoeba castellanii. Conditions: 50 mM Tris-HCl, 1 mM MnCl2, pH 8.0, 37°C, 25 nM enzyme.

Substrate in data set [4]: Cc1cc(=O)oc2cc(NC(=O)[C@@H](N)CCCNC(=N)N)ccc12
The data set is described as follows: purified protein. Format: biochemical, Acanthamoeba castellanii. Conditions: 50 mM Tris-HCl, 1 mM MnCl2, pH 8.0, 37°C, 25 nM enzyme.

For the molecule `CC(C)C[C@H](NC(=O)[C@@H](O)[C@H](N)Cc1ccccc1)C(=O)O` [bestatin], in data set [1], the activity at 10 µM was determined as 22.5 ± 1.13%.

B1: AcLAPr (recombinant AcLAP, M17 leucine aminopeptidase) (Acanthamoeba castellanii) (protein)
chain: MQGKAKCLLWGAASFRSSLRAGAASSSAASIFTRSATHRSPLLSSHGLFPSGSKLIFVAPSTFGTTKPCYSTAAGGDKQIDGVVVGIFEGGELTPAGQAIDKSTSGALTRRIKLSKKAAKGEVGGGEVFFDLGEDYPRVAVVGLGKHPRDVKLTSEQEDYREGQPKPSDAVRQGAARGARLLRDAGSKVIGVESFSEFADLPSVQLAAEGALLGLHKFDELFSKKDDEPVDVRPWGVEADKQEEWNRGKIIATAQNFARVLTDTPANLMTPTIFSQKVEEKFASLPNKADVKIFAHDKAWAEEQGMGCFLGVTQGSEEPPKFLEIHYNPLGDEAQDVAPIIFVGKGVTFDSGGISIKPSEGMGMMRGDMGGAAAVVSTVWALASLQIKTKAICLTPLCENMPSGTATKPGDVLRAKNGKTVEVDNTDAEGRLILADALVYANSFKPAAVIDVATLTGAMVVALGAGATGVFTTSDKLWREMDEAGWKTDSRVWRMPLFSSYKRQIKSAYADLKNVGGRPAGSSTAALFLKEFVETPAWMHMDIAGVMHSDDRNAYTPKGMAGEPVRTLVQWVRDKVEKH
notes: pCold TF vector, E. coli BL21 (pKJE7), Ni-NTA; N-terminal His6-trigger factor tag removed with thrombin
On to B1, for which the Km in data set [2] is 3.77 ± 0.46 µM; in data set [3], 13.51 ± 1.31 µM; in data set [4] it was 41.37 ± 0.05 µM.
